{"source": "paper PMC7385124", "about": "“The molecular basis of thioalcohol production in human body odour” (Scientific Reports, 2020)", "proteins": {"B1": {"name": "Bacillus subtilis 168 PatB (PLP-bound C-S lyase) (enzyme)", "chain": "MGGGFAMNFDKREERLGTQSVKWDKTGELFGVTDALPMWVADMDFRAPEAITEALKERLDHGIFGYTTPDQKTKDAVCGWMQNRHGWKVNPESITFSPGVVTALSMAVQAFTEPGDQVVVQPPVYTPFYHMVEKNGRHILHNPLLEKDGAYAIDFEDLETKLSDPSVTLFILCNPHNPSGRSWSREDLLKLGELCLEHGVTVVSDEIHSDLMLYGHKHTPFASLSDDFADISVTCAAPSKTFNIAGLQASAIIIPDRLKRAKFSASLQRNGLGGLNAFAVTAIEAAYSKGGPWLDELITYIEKNMNEAEAFLSTELPKVKMMKPDASYLIWLDFSAYGLSDAELQQRMLKKGKVILEPGTKYGPGGEGFMRLNAGCSLATLQDGLRRIKAALSENLYFQG", "modifications": "PLP covalently bound to Lys234 (internal aldimine)", "notes": "N-terminal overhang from cloning into pBADcLIC; PatB (C-S lyase, cystathionine beta-lyase activity) of Bacillus subtilis 168, full-length gene; C-terminal linker of the vector before the His10 tag; also called BsPatB; source: E. coli MC1061, pBADcLIC, purified (HisTrap)"}}, "biological_target": "the molecule itself", "assay": "crystal structure; BsPatB, sitting drop, 0.2 M ammonium acetate pH 7.1, 20% PEG 3,350"}
{"protein": "B1", "values": [{"measurement": "stoichiometry N", "result": 2}]}
